Data from paper PMC3377666 (2012).

Target: PCNA (Homo sapiens, UniProt P12004)
Assay: enzyme activity assay

Chain of PCNA (P12004 whole entry): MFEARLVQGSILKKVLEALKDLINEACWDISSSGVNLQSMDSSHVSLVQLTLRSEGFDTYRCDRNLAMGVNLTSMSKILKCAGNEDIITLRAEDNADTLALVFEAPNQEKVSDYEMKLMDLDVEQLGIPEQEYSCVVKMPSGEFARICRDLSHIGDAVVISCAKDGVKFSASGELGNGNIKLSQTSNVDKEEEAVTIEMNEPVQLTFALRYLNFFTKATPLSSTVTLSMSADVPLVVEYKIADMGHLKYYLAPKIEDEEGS

Kd | Binder
73 nM | DNA polymerase delta core (protein) chain 1: MDGKRRPGPGPGVPPKRARGGLWDDDDAPRPSQFEEDLALMEEMEAEHRLQEQEEEELQSVLEGVADGQVPPSAIDPRWLRPTPPALDPQTEPLIFQQLEIDHYVGPAQPVPGGPPPSRGSVPVLRAFGVTDEGFSVCCHIHGFAPYFYTPAPPGFGPEHMGDLQRELNLAISRDSRGGRELTGPAVLAVELCSRESMFGYHGHGPSPFLRITVALPRLVAPARRLLEQGIRVAGLGTPSFAPYEANVDFEIRFMVDTDIVGCNWLELPAGKYALRLKEKATQCQLEADVLWSDVVSHPPEGPWQRIAPLRVLSFDIECAGRKGIFPEPERDPVIQICSLGLRWGEPEPFLRLALTLRPCAPILGAKVQSYEKEEDLLQAWSTFIRIMDPDVITGYNIQNFDLPYLISRAQTLKVQTFPFLGRVAGLCSNIRDSSFQSKQTGRRDTKVVSMVGRVQMDMLQVLLREYKLRSYTLNAVSFHFLGEQKEDVQHSIITDLQNGNDQTRRRLAVYCLKDAYLPLRLLERLMVLVNAVEMARVTGVPLSYLLSRGQQVKVVSQLLRQAMHEGLLMPVVKSEGGEDYTGATVIEPLKGYYDVPIATLDFSSLYPSIMMAHNLCYTTLLRPGTAQKLGLTEDQFIRTPTGDEFVKTSVRKGLLPQILENLLSARKRAKAELAKETDPLRRQVLDGRQLALKVSANSVYGFTGAQVGKLPCLEISQSVTGFGRQMIEKTKQLVESKYTVENGYSTSAKVVYGDTDSVMCRFGVSSVAEAMALGREAADWVSGHFPSPIRLEFEKVYFPYLLISKKRYAGLLFSSRPDAHDRMDCKGLEAVRRDNCPLVANLVTASLRRLLIDRDPEGAVAHAQDVISDLLCNRIDISQLVITKELTRAASDYAGKQAHVELAERMRKRDPGSAPSLGDRVPYVIISAAKGVAAYMKSEDPLFVLEHSLPIDTQYYLEQQLAKPLLRIFEPILGEGRAEAVLLRGDHTRCKTVLTGKVGGLLAFAKRRNCCIGCRTVLSHQGAVCEFCQPRESELYQKEVSHLNALEERFSRLWTQCQRCQGSLHEDVICTSRDCPIFYMRKKVRKDLEDQEQLLRRFGPPGPEAW chain 2: not shown
8.7 nM | DNA polymerase delta core+p12 (protein) chain 1: MDGKRRPGPGPGVPPKRARGGLWDDDDAPRPSQFEEDLALMEEMEAEHRLQEQEEEELQSVLEGVADGQVPPSAIDPRWLRPTPPALDPQTEPLIFQQLEIDHYVGPAQPVPGGPPPSRGSVPVLRAFGVTDEGFSVCCHIHGFAPYFYTPAPPGFGPEHMGDLQRELNLAISRDSRGGRELTGPAVLAVELCSRESMFGYHGHGPSPFLRITVALPRLVAPARRLLEQGIRVAGLGTPSFAPYEANVDFEIRFMVDTDIVGCNWLELPAGKYALRLKEKATQCQLEADVLWSDVVSHPPEGPWQRIAPLRVLSFDIECAGRKGIFPEPERDPVIQICSLGLRWGEPEPFLRLALTLRPCAPILGAKVQSYEKEEDLLQAWSTFIRIMDPDVITGYNIQNFDLPYLISRAQTLKVQTFPFLGRVAGLCSNIRDSSFQSKQTGRRDTKVVSMVGRVQMDMLQVLLREYKLRSYTLNAVSFHFLGEQKEDVQHSIITDLQNGNDQTRRRLAVYCLKDAYLPLRLLERLMVLVNAVEMARVTGVPLSYLLSRGQQVKVVSQLLRQAMHEGLLMPVVKSEGGEDYTGATVIEPLKGYYDVPIATLDFSSLYPSIMMAHNLCYTTLLRPGTAQKLGLTEDQFIRTPTGDEFVKTSVRKGLLPQILENLLSARKRAKAELAKETDPLRRQVLDGRQLALKVSANSVYGFTGAQVGKLPCLEISQSVTGFGRQMIEKTKQLVESKYTVENGYSTSAKVVYGDTDSVMCRFGVSSVAEAMALGREAADWVSGHFPSPIRLEFEKVYFPYLLISKKRYAGLLFSSRPDAHDRMDCKGLEAVRRDNCPLVANLVTASLRRLLIDRDPEGAVAHAQDVISDLLCNRIDISQLVITKELTRAASDYAGKQAHVELAERMRKRDPGSAPSLGDRVPYVIISAAKGVAAYMKSEDPLFVLEHSLPIDTQYYLEQQLAKPLLRIFEPILGEGRAEAVLLRGDHTRCKTVLTGKVGGLLAFAKRRNCCIGCRTVLSHQGAVCEFCQPRESELYQKEVSHLNALEERFSRLWTQCQRCQGSLHEDVICTSRDCPIFYMRKKVRKDLEDQEQLLRRFGPPGPEAW chain 2: not shown chain 3: MGRKRLITDSYPVVKRREGPAGHSKGELAPELGEEPQPRDEEEAELELLRQFDLAWQYGPCTGITRLQRWCRAKQMGLEPPPEVWQVLKTHPGDPRFQCSLWHLYPL
